Data: patent US20150337051A1 (MORPHOTEK, published 2015)

T1: TEM-1 in a native state on aortic smooth muscle cells (AoSMC) (UniProt Q9HCU0 18-757, limits assumed)
T1 construct: whole, on cells; also called tumor endothelial marker 1; endosialin
T1 sequence (looked up): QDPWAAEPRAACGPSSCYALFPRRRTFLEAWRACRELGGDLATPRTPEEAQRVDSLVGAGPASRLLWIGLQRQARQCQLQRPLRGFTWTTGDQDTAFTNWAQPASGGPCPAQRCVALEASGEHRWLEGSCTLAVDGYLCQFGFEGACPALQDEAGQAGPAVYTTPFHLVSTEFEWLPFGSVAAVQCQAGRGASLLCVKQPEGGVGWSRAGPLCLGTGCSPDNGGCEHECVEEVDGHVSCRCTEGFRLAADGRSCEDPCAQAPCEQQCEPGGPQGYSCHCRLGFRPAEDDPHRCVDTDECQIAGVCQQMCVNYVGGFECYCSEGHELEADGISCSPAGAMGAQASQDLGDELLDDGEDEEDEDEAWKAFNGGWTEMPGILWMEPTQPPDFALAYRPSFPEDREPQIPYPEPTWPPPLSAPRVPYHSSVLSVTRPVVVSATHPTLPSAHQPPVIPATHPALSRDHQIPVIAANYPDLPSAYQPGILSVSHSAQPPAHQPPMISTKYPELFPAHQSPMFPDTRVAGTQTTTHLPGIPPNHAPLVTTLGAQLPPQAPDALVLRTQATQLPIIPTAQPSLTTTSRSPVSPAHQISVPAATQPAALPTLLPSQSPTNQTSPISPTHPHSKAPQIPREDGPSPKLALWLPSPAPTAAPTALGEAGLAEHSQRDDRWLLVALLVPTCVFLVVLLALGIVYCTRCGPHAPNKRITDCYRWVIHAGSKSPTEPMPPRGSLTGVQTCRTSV

T2: Biotinylated TEM1-Fc (murine, UniProt Q9HCU0 18-687 (human entry), limits assumed, biotinylated (sites not given))
T2 construct: Ligand captured on the streptavidin sensor surface in the Biacore analysis; also called rTEM-1-Fc; not shown: Fc portion of a murine gamma heavy chain
T2 sequence (looked up): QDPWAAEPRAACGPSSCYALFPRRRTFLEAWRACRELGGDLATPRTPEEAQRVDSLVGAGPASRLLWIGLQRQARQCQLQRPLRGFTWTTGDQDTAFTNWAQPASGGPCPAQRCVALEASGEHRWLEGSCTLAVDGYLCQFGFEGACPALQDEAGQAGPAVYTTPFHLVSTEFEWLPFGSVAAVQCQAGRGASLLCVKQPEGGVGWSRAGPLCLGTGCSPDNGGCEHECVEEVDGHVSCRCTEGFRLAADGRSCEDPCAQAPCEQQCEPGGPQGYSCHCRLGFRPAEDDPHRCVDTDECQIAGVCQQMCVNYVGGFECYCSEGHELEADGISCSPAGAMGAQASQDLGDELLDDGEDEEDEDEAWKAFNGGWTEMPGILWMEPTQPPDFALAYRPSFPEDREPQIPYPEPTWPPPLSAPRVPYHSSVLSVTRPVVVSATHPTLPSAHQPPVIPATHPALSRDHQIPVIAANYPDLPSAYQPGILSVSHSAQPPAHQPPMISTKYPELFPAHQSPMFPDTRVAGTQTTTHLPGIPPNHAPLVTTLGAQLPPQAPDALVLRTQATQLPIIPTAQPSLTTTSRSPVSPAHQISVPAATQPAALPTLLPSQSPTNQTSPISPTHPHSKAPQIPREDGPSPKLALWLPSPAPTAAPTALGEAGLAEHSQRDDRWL


What was measured:
[1] = target: T1, TEM-1 in a native state on aortic …; test: flow cytometry on AoSMC, 10 µg/mL antibody, FITC goat anti-rat secondary; cells only 2.5, secondary only 3.5
Experimental: FACS analyses were also performed using aortic smooth muscle cells (AoSMC) and HUVEC cells. Cells were harvested using cell dissociation buffer (Invitrogen, #13151-014), washed twice in PBS and re-suspended at 50,000 cells/100 μL FACS buffer (PBS+2% FBS) in a round bottom 96 well plate. Cells were incubated for 1 hour on ice with the described rat TEM-1-specific antibodies at a concentration of 10 μg/mL, washed and then incubated with FITC-conjugated goat-anti-rat secondary antibodies (dilution 1:100) (Southern Biotech). Prior to analysis, cells were labeled with 7-AAD (BD Biosciences) to allow for the exclusion of nonviable cells. Cells were analyzed on an EasyCyte Flow Cytometer (Guava Technologies). The data in Table 6 indicate that all of the tested antibodies bind TEM-1 in a native state.

Biotinylated TEM1-Fc = target: T2, Biotinylated TEM1-Fc; test: Biacore SPR, biotinylated TEM1-Fc on streptavidin surface, antibody as analyte, 1:1 model
Experimental: Biacore analyses were also performed to determine the affinity of selected isolated TEM-1-specific rat antibodies. For these studies streptavidin-coated sensor surfaces were generated by injecting CAP reagent for 5 minutes at a flow rate of 2 μl/min. Biotinylated TEM1-Fc (10 μg/ml) was injected onto the streptavidin coated sensor surface for 20 sec (Fc2, RL=˜50 RU), 40 sec (Fc3, RL=˜100 RU), and 60 sec (Fc4, RL=˜150 RU) at a flow rate of 25 μl/minute. Rat anti-TEM-1 MAbs were injected for 300 seconds at 0.5 nM, 2 nM, 5 nM, 20 nM, and 50 nM concentrations and the dissociations were monitored for 30 minutes at a flow rate of 25 μl/minute. The sensor surface was regenerated by injecting a CAP kit regeneration solution for 120 sec at a flow rate of 25 μl/minute. The sensorgrams were analyzed using 1:1 binding model.

Binder	Geometric mean of resulting FACS plot [1]	Kd (Biotinylated TEM1-Fc) [pM]	koff (Biotinylated TEM1-Fc) [s⁻¹]	kon (Biotinylated TEM1-Fc) [M⁻¹ s⁻¹]
Antibody 11D1 (antibody, V domains shown, Rat monoclonal antibody from hybridoma, IgG2a/kappa; also called 11D1.G10.F8; ATCC PTA-12541) VH: EVQLVESDGGLVQPGRSLKLSCAASGFSFSDYYMAWVRQAPTKGLEWVATISYDGSGSYYRDSVKGRFTVSRDNAKTTLYLQMDSLRSEDTATYYCARGGGLDYWGQGVMVTVSS VL: DNVLTQAPLAVSVTPGESASISCRSSKSLLSIEGINSLYWYLQKPGKSPQLLLFRMSNLASGVPDRFSGSGSETDFTLKISQVETEDVGVYYCAQFLEFPFTFGSGTKLEIK	46.3	240	9.57e-05	400000
Antibody 14G3 (antibody, V domains shown, Rat monoclonal antibody from hybridoma, IgG2a/kappa; also called 14G3.H4.F11.H7; ATCC PTA-12539) VH: EVQLVEFGGGLVQPGRSLKLSCAASGFTFSDYNLAWVRQAPKKGLEWVATISYNGSEIYYRDSVKGRFTISRDNAKNTLYLQMDSLRSEDTATYYCARHWREYYSSYSSYVMDAWGQGASVTVSS VL: DIVMTQTPSSQAVSAGAKVTLSCKSSQSLLYNKNKKNYLAWYQQKPGQSPKLLIYWASTRESGVPDRFIGSGSGTDFTLTISSVQAEDLAIYYCQQYYTFPTFGAGTKLELK	94.2	–	–	–
Antibody 15F8 (antibody, V domains shown, Rat monoclonal antibody from hybridoma, IgG2a/kappa; also called 15F8.G6.B4; ATCC PTA-12540) VH: EVQLVESGGGLVQPGRSMKLSCSASGFTFRNYYMAWVRQAPTRGLEWVASTGTGGDFTYYRDSVKGRFTISRDTAENTLYLQMDSLRSEDTATYYCARAYGYFDYWGQGVKVTVSS VL: DIVLTQSPTTLSVTPGETVSLSCRASHSVGTNLHWYQQKPNESPRLLIKYVSQSNSGIPSRFSASGSGTDFTLNIKNVEFNDVSSYFCQQTQSWPLTFGAGTKLEIK	72.5	0.222	1.65e-07	742000
Antibody 15D10 (antibody, V domains shown, Rat monoclonal antibody from hybridoma, IgG2a/kappa; also called 15D10.G4.C12; ATCC PTA-12543) VH: QVQLMESGPGLVQPSETLSLTCTVSGFSLTNYNIHWVRQPPGKGLEWMGLMWSGGNTDYNSALKSRLTISRDTSKNQVFLKMNSLQSEDTTTYYCARDSGYGEGRLDYWGQGVMVTVSS VL: DIVLTQAPLSVSVTPGESASISCRSSKSLLGSKGINFLYWYLQKPGKSPQLLIYRMSNLASGVPDRFSGSGSETDFILKISKVETEDVGVYYCAQFLEYPNSFGAGTKLELK	86.4	106	0.000105	993000
Antibody 10H8 (antibody, V domains shown, Rat monoclonal antibody from hybridoma, IgG2a/kappa; also called 10H8.D7.E3; ATCC PTA-12546) VH: QVQLKESGPGLVQPSQTLSLTCTVSGFSLTNYNIHWVRQPPGKGLEWMGAIWSGGSADYDSALKSRLSISRDTSKSQVFLKMDNLQTEDTAIYYCTRDQLGGWYFDFWGPGTKVTVSS VL: DIVMTQTPSSQAVSAGEKVTMSCTSGQSLLYNENNKNYLAWYQLKPGQSPRLLIYWASTRESGVPDRFIGSGSGTYFTLTISSVQAEDLAVYYCQQYFRFPRTFGGGTKLELK	52.7	–	–	–
Antibody 9G5 (antibody, V domains shown, Rat monoclonal antibody from hybridoma, IgG1/kappa; also called 9G5.F2.C1.F4; anti-TEM-1 clone 9G5) VH: EVKLEESGGGLVQPGMSVKLSCATSGFTFSDYWMEWVRQAPGKGLEWVAEIRNKLNNYVTNYGKPVRGRFTISRDDSKSIVYLQVNSIRSEDTGIYYCTRIQRVITTGEYFDYWGQGVMVTVSS VL: DIQMTQSPSLLSASEGDRVTLSCKASQNIYKYLNWYQQKLGEAPKLLIYNINNLQTGIPSRFSGSGSGTDFTLTISSLQPEDVATYYCYQYNSGRAFGGGTKLELK	57.4	–	–	–

More lines, now with the values ahead:

Geometric mean of resulting FACS plot [1]	Kd (Biotinylated TEM1-Fc) [pM]	koff (Biotinylated TEM1-Fc) [s⁻¹]	kon (Biotinylated TEM1-Fc) [M⁻¹ s⁻¹]	Binder
63.4	2.03	1.34e-07	65900	Antibody 7D3 (antibody, V domains shown, Rat monoclonal antibody from hybridoma, IgG2a/kappa; also called 7D3.F5.E8.D8; ATCC PTA-12538) VH: EVQLVESGGGLVQPKGSLKLSCAASGFDFKTYAMSWVRQAPGKGLDWIVTISTKGHNYATLYADSVKERFTISRDDSQSMVYLQMNNLKTEDTALYYCTVAGYNFDYWGQGVMVTVSS VL: DVVLTQTPSILSATIGQSVSISCRSSQSLLDSDGNTYLYWFLQRPGQSPQRLIYLVSNLGSGVPNRFSGSGSGTDFTLKISGVEAGDLGVYYCMQATHAPFTFGSGTKLEIK
89.9	21.6	1.84e-05	850000	Antibody 9A5 (antibody, V domains shown, Rat monoclonal antibody from hybridoma, IgG2a/kappa; also called 9A5.G12.B10.F8.F6; ATCC PTA-12542) VH: EVQLVESGGGLVQPGRSMKLSCAASGFTFRNYYMAWVRQAPTRGLEWVASTGSGGDFTYYRDSVKGRFTISRDTAENTLYLQMDSLRSEDTATYYCARAYGYFDYWGQGVRVTVSS VL: DIVLTQSPTTLSVTPGETVSLSCRASHSVGTNLHWYQQKTNESPRLLIKDASQSMSGIPSRFSASGSGTDFTLNIKNVEFDDVSSYFCQQTQSWPLTFGSGTKLEIK
98	0.0131	1.07e-08	810000	Antibody 16D2 (antibody, V domains shown, Rat monoclonal antibody from hybridoma, IgG2a/kappa; also called 16D2.H12.E7.G9; ATCC PTA-12544) VH: EVQLVESGGGLVQPGRSMKLSCSASGFIFRNYYMAWVRQAPTKGLEWVASTGTGGDFTYYRDSVKGRFTISRDTAESTLYLQMDSLKSEDTATYYCARAYGYFDYWGQGVKVTVSS VL: DIVLTQSPTTLSVTPGETVSLSCRASHSVGTNLHWYQQKTNESPRLLIKYVSQSNSGIPSRFSASGSGTDFTLNIKDVEFDDVSSYFCQQTQSWPLTFGSGTKLEIK
59.9	0.0279	3.01e-08	1.08e+06	Antibody 7H12 (antibody, V domains shown, Rat monoclonal antibody from hybridoma, IgG1/kappa; also called 7H12.H5.E7; ATCC PTA-12545) VH: EVQLVESGGGLVQPGRSMILSCAASGFTFSNFDMAWVRQAPKMGLEWVATITYDGSRTNYRDSVKGRFTISRDSAKNTLYLQMDSLTSEDTATYYCARHGSSYYWFFDFWGPGTMVTVSS VL: ETVMTQSPTSMPTSIGERVTLNCKASQSVGINVDWYQQTPGQSPKLLIYTASNRHTGVPDRFAGSGSGRDFTLTISNVEAEDLVVYYCLQYGSLPFTFGAGTKLELK
